Measurements reported in patent US7482016B2, “Immunogenic compositions comprising HIV-1 acetylated Tat polypeptides” (The J. David Gladstone Institutes, priority 2003, dated 2009).

B1: Tat: synthetic unacetylated 72-amino acid Tat, sequence derived from isolate HIV-1BRU (peptide)
chain: MEPVDPRLEPWKHPGSQPKTACTTCYCKKCCFHCQVCFTTKALGISYGRKKRRQRRRPPQGSQTHQVSLSKQ
B2: AcTat: synthetic Tat protein (HIV-1BRU sequence, 72 amino acids) containing a single acetylated lysine at position 50 (peptide)
chain: B1 chain

Assays:
[1] = system: Jurkat T cells expressing FLAG-tagged Tat from the HIV LTR; test: Western blot of lysates of Jurkat T cells expressing FLAG-tagged Tat after TSA; assay type: cell-based; details: 400 nM TSA, 16 hours
Method: Immunoglobulin G were purified on Gammabind Plus Sepharose (Amersham).
Next, cellular extracts were analyzed with anti-AcARM antibodies. A cell line was generated that constitutively expressed a FLAG-tagged Tat protein from the HIV LTR by transducing Jurkat T cells with a Tat-encoding lentiviral vector (Jordan et al., 2001, supra). Following treatment with trichostatin A (TSA), a specific inhibitor of cellular HDACs, AcTat was detected by western blot analysis with anti-AcARM mAbs in cells expressing Tat, but not in control cells expressing GFP (FIG. 1D). To enhance the signal, immunoprecipitation was performed with anti-FLAG monoclonal antibodies before western blot analysis. Again, AcTat was detected in Tat-expressing, but not in GFP control cells (FIG. 1E). Expression of AcTat was enhanced when cells were treated with TSA.

[2] = system: p300-dependent transcription of MyoD RNA; details: microinjected into nuclei of oocytes; cited from earlier work
[3] = system: TAR-mutant LTR-luciferase, RSV LTR-luciferase, 5×UAS/Gal4-VP16, CMV-GFP, LTR alone in HeLa cells; test: Microinjection control experiments with Tat-independent reporters; assay type: cell-based
Method: Microinjection was performed at room temperature with a Zeiss automated injection system (Carl Zeiss, Oberkochen, Germany). Samples were prepared as a 20111 injection mix containing the luciferase reporter constructs (100 ng/ml) and CMV-GFP (50 ng/ml) constructs in sterile water or phosphate buffer. In individual experiments α-AcARM or preimmune immunoglobulins (5 mg/ml), Lys-CoA (8 μM) or synthetic Tat (30 μg/ml) were included in the mix. Four hours after injection, cells were examined on a Zeiss Axiovert microscope to determine the number of GFP-positive cells, washed in cold phosphate buffer and stored at −70° C. for luciferase assays (Promega).
A GFP-expressing construct (CMV-GFP) was coinjected to count the number of injected cells before analysis of luciferase activity.

[4] = system: Tat transactivation of the HIV LTR in HeLa-Tat cells; test: Nuclear microinjection of HIV LTR-luciferase reporter, Tat transactivation; assay type: cell-based; details: 8 μM solution microinjected into HeLa-Tat cells, three independent experiments
Method: Microinjection experiments were previously described (Dorr et al. (2002), supra). Microinjection was performed at room temperature with a Zeiss automated injection system (Carl Zeiss, Oberkochen, Germany). Samples were prepared as a […] injection mix containing the luciferase reporter constructs (100 ng/ml) and CMV-GFP (50 ng/ml) constructs in sterile water or phosphate buffer. In individual experiments α-AcARM or preimmune immunoglobulins (5 mg/ml), Lys-CoA (8 μM) or synthetic Tat (30 μg/ml) were included in the mix. Four hours after injection, cells were examined on a Zeiss Axiovert microscope to determine the number of GFP-positive cells, washed in cold phosphate buffer and stored at −70° C. for luciferase assays (Promega). The α-p24 monoclonal antibody (183-H12-5C) was used in control microinjections with α-AcARM mAbs and was obtained through the AIDS Research and Reference Reagent Program, NIH (Chesebro et al. (1992) J Virol 66, 6547-6554). […]
FIGS. 3A-D. (FIG. 3A) Microinjection of the p300-HAT inhibitor Lys-CoA (8 μM), HIV LTR-luciferase and CMV-GFP into HeLa or HeLa-Tat cells. Each value is expressed as a percentage of the value obtained in control cells, injected with LTR-luciferase and CMV-GFP alone. […]

GST-CyclinT1 [5] = target: T1, GST-CyclinT1 (Homo sapiens, UniProt O60563, C261A); test: GST binding (pulldown) assay
T1 construct: Full-length GST-CyclinT1, GST-CyclinT1C261A or GST alone were expressed in the BL21 strain of Escherichia coli; made in house; host or cells: Escherichia coli BL21
T1 sequence (O60563 whole entry C261A): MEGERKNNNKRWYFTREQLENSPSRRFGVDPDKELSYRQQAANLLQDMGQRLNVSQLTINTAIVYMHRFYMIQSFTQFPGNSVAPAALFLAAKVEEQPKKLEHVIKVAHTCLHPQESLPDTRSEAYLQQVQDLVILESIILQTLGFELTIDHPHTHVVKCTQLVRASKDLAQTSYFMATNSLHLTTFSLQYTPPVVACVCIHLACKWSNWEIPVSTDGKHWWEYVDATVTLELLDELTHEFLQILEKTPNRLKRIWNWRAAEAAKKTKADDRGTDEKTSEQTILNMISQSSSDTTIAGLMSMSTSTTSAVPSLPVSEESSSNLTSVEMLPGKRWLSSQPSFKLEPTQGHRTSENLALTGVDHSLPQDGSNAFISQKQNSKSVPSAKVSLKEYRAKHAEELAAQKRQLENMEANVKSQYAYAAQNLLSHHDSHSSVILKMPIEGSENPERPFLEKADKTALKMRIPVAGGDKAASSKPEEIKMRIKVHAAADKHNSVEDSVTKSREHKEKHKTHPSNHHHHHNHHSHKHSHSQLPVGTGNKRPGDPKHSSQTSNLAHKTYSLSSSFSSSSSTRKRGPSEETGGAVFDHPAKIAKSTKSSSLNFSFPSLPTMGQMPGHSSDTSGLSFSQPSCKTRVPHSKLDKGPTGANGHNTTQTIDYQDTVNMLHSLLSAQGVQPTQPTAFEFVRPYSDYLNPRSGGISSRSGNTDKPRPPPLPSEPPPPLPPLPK
Method: (§1) Full-length GST-CyclinT1, GST-CyclinT1C261A or GST alone were expressed in the BL21 strain of Escherichia coli and purified on glutathione-Sepharose beads (Amersham Pharmacia Biotech) as described (Herrmann and Rice (1993) Virology 197, 601-608). For binding assays ˜1 μg of bead-coupled GST-CyclinT1, GST-CyclinT1C261A or GST alone was incubated with Tat and AcTat in 100 μl modified Buffer C for 3.5 hr at 4°. Buffer C is described in (Fujinaga et al. (1999) Proc. Natl. Acad. Sci. USA 96, 1285-1290) and was used without ZnCl2 and SDS. Beads were washed three times with modified Buffer C containing 1M KCl, boiled in Laemmli buffer and supernatant was analyzed by immunoblotting using monoclonal anti-Tat antibodies (clone AC11.AE12; CPR Inc.).
(§2) FIGS. 4A-D. (FIG. 4A) Bulge-dependent binding of Tat to TAR. Radiolabeled riboprobes corresponding to the HIV TAR element or a mutated form (TARΔBulge) were incubated with 0, 40, 80 and 160 ng of Tat and analyzed on a 4% Tris-glycine gel. (FIG. 4B) High-affinity binding of AcTat to TAR RNA, but […]. The wild-type TAR probe was incubated with increasing amounts of synthetic Tat or AcTat (0, 1.6 ng, 8 ng, 40 ng, and 200 ng) in the absence or presence of recombinant CyclinT1. The same experiment with a mutated TAR RNA probe containing mutations in the apical loop is shown below (TARΔLoop). (FIG. 4C) Binding of AcTat to CyclinT1 in the absence of TAR. Increasing amounts (0, 0.5 μg, 1 μg, and 2 μg) of Tat or AcTat were incubated with GST-CyclinT1, Tat-binding-deficient GST-CyclinT1 (C261A) or GST alone. Bound proteins were analyzed with monoclonal anti-Tat antibodies, directed against the N-terminus of Tat. 50% of input Tat proteins are shown. (FIG. 4D) Binding of Tat and AcTat to RNAPII. Biotinylated Tat or AcTat proteins (0, 1, 2, 4, 8 μg) were incubated with nuclear extracts, precipitated with streptavidin-sepharose and analyzed with modification-specific antibodies directed against the CTD of RNAPII. AcTat was detected with monoclonal anti-AcARM antibodies. Both Tat proteins reacted with horseradish peroxidase-conjugated streptavidin (SA-HRP).

GST-CyclinT1 [6] = target: T2, GST-CyclinT1 (Homo sapiens, UniProt O60563); test: GST binding (pulldown) assay; details: absence of TAR
T2 construct: Full-length GST-CyclinT1, GST-CyclinT1C261A or GST alone were expressed in the BL21 strain of Escherichia coli; made in house; host or cells: Escherichia coli BL21
T2 sequence (O60563 whole entry): as the sequence (O60563 whole entry C261A) above, with A261C counted along it
Method: as §1, §2

HIV TAR RNA = test: RNA gel mobility shift assay; assay type: binding; details: for effect of mutations in the loop of TAR on binding: TARΔLoop probe; for binding to wild-type TAR RNA: absence of CyclinT1; for effect of addition of CyclinT1 on affinity for wild-type TAR RNA: recombinant CyclinT1 present
Method: (§3) TAR RNAs were synthesized from HindIII-linearized pGEM3Zf-TAR constructs, which contained an oligonucleotide corresponding to the HIVLAI TAR sequence (nucleotides +17 to +44) ligated into the EcoR1-HindIII cloning sites, downstream of the T7 RNA polymerase start site. In the TARΔbulge construct, thymidine 23 was replaced with an adenosine, and the TARΔloop construct contained C30→A, T31→G, and G33→T mutation. In vitro transcription reactions were performed with the Riboprobe system (Promega, Madison, Wis.) with 1 μg of linearized plasmids and 50 μCi of ^32P-CTP (20 μCi/μl; Amersham Pharmacia Biotech). Transcripts were treated with 2 U DNAse I (Promega), extracted with a phenol:chloroform mixture, and purified over a Nick column (Amersham Pharmacia Biotech). Gel mobility reactions (final volume, 16 μl) were carried out at 30° C. as described (Wei et al. (1998) Cell 92, 451-462) with 2×10^4 cpm TAR probes/reaction with indicated concentrations of Tat proteins and 160 ng of GST-cleaved CyclinT1 (amino acids 1-303) (Garber et al. (1998) Curr Opin Immunol 11, 460-465). RNA-binding complexes were separated on a pre-run 4% Tris-glycine gel.
as §2

Tat/TAR/CyclinT1 complex = target: T3, Tat/TAR/CyclinT1 complex (Homo sapiens, UniProt O60563); test: RNA gel shift with recombinant CyclinT1, ternary complex formation; assay type: binding; details: presence of CyclinT1
T3 construct: 160 ng of GST-cleaved CyclinT1 (amino acids 1-303); GST (N, cleaved yes); made in house
T3 sequence (O60563 1-303, one chain of several): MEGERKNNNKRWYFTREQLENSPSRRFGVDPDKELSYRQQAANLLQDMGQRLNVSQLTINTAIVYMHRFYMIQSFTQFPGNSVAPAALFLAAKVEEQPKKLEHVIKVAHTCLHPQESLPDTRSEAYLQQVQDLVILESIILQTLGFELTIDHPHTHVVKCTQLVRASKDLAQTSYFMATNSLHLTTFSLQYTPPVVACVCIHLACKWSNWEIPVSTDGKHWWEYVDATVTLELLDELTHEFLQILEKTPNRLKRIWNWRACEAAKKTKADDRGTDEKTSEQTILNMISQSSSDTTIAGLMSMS
Method: as §3, with “Gel mobility reactions (final volume, 16 μl) were carried out at 30° C. as described (Wei et al. (1998) Cell 92, 451-462) with 2×10^4 cpm TAR probes/reaction with indicated concentrations of Tat proteins and 160 ng of GST-cleaved CyclinT1 (amino acids 1-303) (Garber et al. (1998) Curr Opin Immunol 11, 460-465). RNA-binding complexes were separated on a pre-run 4% Tris-glycine gel.” left out
FIGS. 4A-D. (FIG. 4A) Bulge-dependent binding of Tat to TAR. Radiolabeled riboprobes corresponding to the HIV TAR element or a mutated form (TARΔBulge) were incubated with 0, 40, 80 and 160 ng of Tat and analyzed on a 4% Tris-glycine gel. […] Bound proteins were analyzed with monoclonal anti-Tat antibodies, directed against the N-terminus of Tat. […] Biotinylated Tat or AcTat proteins (0, 1, 2, 4, 8 μg) were incubated with nuclear extracts, precipitated with streptavidin-sepharose and analyzed with modification-specific antibodies directed against the CTD of RNAPII. AcTat was detected with monoclonal anti-AcARM antibodies. […]

RNAPII = target: T4, RNAPII (Homo sapiens, UniProt P24928); test: RNA polymerase II binding in 293 nuclear extracts; details: biotinylated proteins
T4 construct: analyzed with modification-specific antibodies directed against the CTD of RNAPII; endogenous in cells; host or cells: 293 nuclear extract
Method: Synthetic biotinylated nonacetylated and acetylated Tat proteins were incubated for 2 hours with 50 μl 293 nuclear extracts prepared according to (Dignam et al. (1983) Methods Enzymol. 101, 582-598) in buffer conditions described in (Mavankal et al., (1996) Proc. Natl. Acad. Sci. USA 93, 2089-2094). Complexes were collected with streptavidin-sepharose beads, separated by SDS-PAGE electrophoresis and analyzed with α-RNAPII antibodies (clones H14 and 8WG16; CPR Inc) or with α-AcARM mAbs and HRP-conjugated Streptavidin (Jackson Immunoresearch Laboratories).
as §2

| Molecule | Tat expression (anti-FLAG immunodetection) [1] | expression of AcTat ([1]; anti-FLAG immunoprecipitation, anti-AcARM blot) | p300-dependent transcription of MyoD RNA [2] | effect on the LTR alone ([3]; coinjected into HeLa cells (no Tat)) | effect on coinjected CMV-GFP reporter ([3]; same concentration (8 μM)) | inhibition of Tat activity on the HIV LTR [4] | binding to mutant CyclinT1 (C261A) or GST alone (GST-CyclinT1 [5]) | binding to wild-type GST-CyclinT1 (GST-CyclinT1 [6]) | binding to bulge-mutant TAR RNA (HIV TAR RNA; TARΔBulge probe) | effect of mutations in the loop of TAR on binding (HIV TAR RNA) | binding to wild-type TAR RNA (HIV TAR RNA) | effect of addition of CyclinT1 on affinity for wild-type TAR RNA (HIV TAR RNA) | formation of the Tat/TAR/CyclinT1 ternary complex (Tat/TAR/CyclinT1 complex) | binding to nonphosphorylated RNAPII (RNAPII) | concentration at which retarded bands form, relative to unacetylated Tat (HIV TAR RNA; wild-type TAR probe) | interaction with hyperphosphorylated RNAPII complex (RNAPII) |
| --- | --- | --- | --- | --- | --- | --- | --- | --- | --- | --- | --- | --- | --- | --- | --- | --- |
| CC(/C=C/C(=O)NO)=C\[C@@H](C)C(=O)c1ccc(N(C)C)cc1 [TSA, trichostatin A] | overall upregulation | enhanced |  |  |  |  |  |  |  |  |  |  |  |  |  |  |
| CC(=O)N[C@@H](CCCCNC(=O)CSCCNC(=O)CCNC(=O)[C@H](O)C(C)(C)COP(=O)(O)OP(=O)(O)OC[C@H]1O[C@@H](n2cnc3c(N)ncnc32)[C@H](O)[C@@H]1OP(=O)(O)O)C(N)=O [Lys-CoA] |  |  | efficiently blocked | no effect | no effect | 60-70% |  |  |  |  |  |  |  |  |  |  |
| B1 |  |  |  |  |  |  | Neither Tat nor AcTat bound | equal affinities | blocked | little effect | high affinity | did not alter | formed the expected Tat/TAR/CyclinT1 complex | no binding |  |  |
| B2 |  |  |  |  |  |  | Neither Tat nor AcTat bound | equal affinities |  | little effect | affinities equal to that of unacetylated Tat | did not alter | could not | no binding | one-third | higher affinity than Tat |
